These results are taken from paper PMC4457907.

The subject of series [1] is AtrA (Streptomyces coelicolor). In words: EMSA. The settings on record: SlbR EMSA: 0.5x TBE pH 8.0, 0.0375% glycerol, 5 mM MgCl2, 1 mM DTT, 7.5 ug salmon sperm DNA in 20 ul, 30 min room temperature, AtrA EMSA: as Uguru et al. 2005 ….
The target of series [2] is T1, AtrA (Streptomyces coelicolor) (UniProt Q9KYF2).
T1 sequence: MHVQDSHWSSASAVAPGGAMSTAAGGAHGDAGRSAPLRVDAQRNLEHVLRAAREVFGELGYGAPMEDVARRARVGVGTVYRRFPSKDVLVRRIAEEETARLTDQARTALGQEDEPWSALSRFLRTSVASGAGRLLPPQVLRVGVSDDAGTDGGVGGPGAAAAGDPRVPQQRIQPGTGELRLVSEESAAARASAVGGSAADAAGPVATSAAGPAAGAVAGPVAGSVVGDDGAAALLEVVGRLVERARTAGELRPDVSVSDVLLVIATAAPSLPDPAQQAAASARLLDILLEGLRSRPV
In words: EMSA. The settings on record: SlbR EMSA: 0.5x TBE pH 8.0, 0.0375% glycerol, 5 mM MgCl2, 1 mM DTT, 7.5 ug salmon sperm DNA in 20 ul, 30 min room temperature; AtrA EMSA: as Uguru et al. 2005 …. A general note: A gel shift assay detects complexes by their altered migration in electrophoresis.

As to actII-ORF4 site 2 probe (100 bp), in series [1] (cited from earlier work), the Kd is 0.15 µM. For ssgR promoter probe (224 bp), the Kd in series [1] (apparent Kd', 5 nM probe) was determined as 1.2 µM. Regarding “AGCCGCGGGAACCAACGTCGCACGGCATGATCACGCAGGTCAGCGTGGGTGAGTGGGGGTTCGGAGGGGGGCACATCCGGGGCGGGCGCCATCCGTGCTCCGATCGGGGGGCGCTCCGTGCGGAACGTGCCCCTTCTGAATTGACCCCCGCTCAACTATGTTCTTTCCCACGGTGTGTAG (double strand) [SCO4119 promoter probe (179 bp)]”, the binding signal result in series [2] is “binds more weakly”. “GTGAGAGCCGTGGGACACCGGTGGCGGTAACAGGAACCACCGGTTCCCTCGGGCGAGGGAAGTTTCCCGGACGGACCGTCGGTGAGCGGTGACCGACGGTTAGAGTCCGGAACTCCACGCGGGGGCGACTCCGCGAATGGCGCACCCCCCACCCGTGTTCGCCGCACGGGCCGCCACCTCGCGTTCCGGGAGTGATCCTTGGCCACGGCTGACACCGCATTCGCT (double strand) [ssgR promoter probe (224 bp)]” gave a Kd in series [2] of 1.2 µM.
